Data reported in patent US20230174608A1 (published 2023).

Legend:
[1] = target: GLP-1 receptor (GLP-1R), stably expressed on HEK293 cells; test: cell-based or functional assay
[2] = target: Glucagon receptor (GCGR), stably expressed on HEK293 cells; test: cell-based or functional assay

Binder	GLP-1R (nM EC50), receptor-mediated cAMP production in HEK293 cells [1] [nM]	GCGR (nM EC50), receptor-mediated cAMP production in HEK293 cells [2] [nM]
HXQGTFTSDYSKYLDERAAKEFIAWLEGG (HELM PEPTIDE1{H.[Aib].Q.G.T.F.T.S.D.Y.S.K.Y.L.D.E.R.A.A.K.E.F.I.A.W.L.E.G.G.[am]}|PEPTIDE2{[CCCCCCCCCCCCCCCC(=O)[*:2]].[gGlu].[gGlu]}$PEPTIDE1,PEPTIDE2,20:R3-3:R2$$$V2.0; N-terminus assumed; SMILES CCCCCCCCCCCCCCCC(=O)N[C@@H](CCC(=O)N[C@@H](CCC(=O)NCCCC[C@H](NC(=O)[C@H](C)NC(=O)[C@H](C)NC(=O)[C@H](CCCNC(=N)N)NC(=O)[C@H](CCC(=O)O)NC(=O)[C@H](CC(=O)O)NC(=O)[C@H](CC(C)C)NC(=O)[C@H](Cc1ccc(O)cc1)NC(=O)[C@H](CCCCN)NC(=O)[C@H](CO)NC(=O)[C@H](Cc1ccc(O)cc1)NC(=O)[C@H](CC(=O)O)NC(=O)[C@H](CO)NC(=O)[C@@H](NC(=O)[C@H](Cc1ccccc1)NC(=O)[C@@H](NC(=O)CNC(=O)[C@H](CCC(N)=O)NC(=O)C(C)(C)NC(=O)[C@@H](N)Cc1c[nH]cn1)[C@@H](C)O)[C@@H](C)O)C(=O)N[C@@H](CCC(=O)O)C(=O)N[C@@H](Cc1ccccc1)C(=O)N[C@H](C(=O)N[C@@H](C)C(=O)N[C@@H](Cc1c[nH]c2ccccc12)C(=O)N[C@@H](CC(C)C)C(=O)N[C@@H](CCC(=O)O)C(=O)NCC(=O)NCC(N)=O)[C@@H](C)CC)C(=O)O)C(=O)O) [dgc013]	0.319	1.99
HXQGTFTSDYSKYLEERAAKEFIAWLEGG (HELM PEPTIDE1{H.[Aib].Q.G.T.F.T.S.D.Y.S.K.Y.L.E.E.R.A.A.K.E.F.I.A.W.L.E.G.G.[am]}|PEPTIDE2{[CCCCCCCCCCCCCCCC(=O)[*:2]].[gGlu]}$PEPTIDE1,PEPTIDE2,20:R3-2:R2$$$V2.0; N-terminus assumed; SMILES CCCCCCCCCCCCCCCC(=O)N[C@@H](CCC(=O)NCCCC[C@H](NC(=O)[C@H](C)NC(=O)[C@H](C)NC(=O)[C@H](CCCNC(=N)N)NC(=O)[C@H](CCC(=O)O)NC(=O)[C@H](CCC(=O)O)NC(=O)[C@H](CC(C)C)NC(=O)[C@H](Cc1ccc(O)cc1)NC(=O)[C@H](CCCCN)NC(=O)[C@H](CO)NC(=O)[C@H](Cc1ccc(O)cc1)NC(=O)[C@H](CC(=O)O)NC(=O)[C@H](CO)NC(=O)[C@@H](NC(=O)[C@H](Cc1ccccc1)NC(=O)[C@@H](NC(=O)CNC(=O)[C@H](CCC(N)=O)NC(=O)C(C)(C)NC(=O)[C@@H](N)Cc1c[nH]cn1)[C@@H](C)O)[C@@H](C)O)C(=O)N[C@@H](CCC(=O)O)C(=O)N[C@@H](Cc1ccccc1)C(=O)N[C@H](C(=O)N[C@@H](C)C(=O)N[C@@H](Cc1c[nH]c2ccccc12)C(=O)N[C@@H](CC(C)C)C(=O)N[C@@H](CCC(=O)O)C(=O)NCC(=O)NCC(N)=O)[C@@H](C)CC)C(=O)O) [dgc015]	0.899	1.53
HXQGTFTSDYSKYLDERAAKEFIAWLEGEG (HELM PEPTIDE1{H.[Aib].Q.G.T.F.T.S.D.Y.S.K.Y.L.D.E.R.A.A.K.E.F.I.A.W.L.E.G.E.G.[am]}|PEPTIDE2{[CCCCCCCCCCCCCCCC(=O)[*:2]].[gGlu]}$PEPTIDE1,PEPTIDE2,20:R3-2:R2$$$V2.0; N-terminus assumed; SMILES CCCCCCCCCCCCCCCC(=O)N[C@@H](CCC(=O)NCCCC[C@H](NC(=O)[C@H](C)NC(=O)[C@H](C)NC(=O)[C@H](CCCNC(=N)N)NC(=O)[C@H](CCC(=O)O)NC(=O)[C@H](CC(=O)O)NC(=O)[C@H](CC(C)C)NC(=O)[C@H](Cc1ccc(O)cc1)NC(=O)[C@H](CCCCN)NC(=O)[C@H](CO)NC(=O)[C@H](Cc1ccc(O)cc1)NC(=O)[C@H](CC(=O)O)NC(=O)[C@H](CO)NC(=O)[C@@H](NC(=O)[C@H](Cc1ccccc1)NC(=O)[C@@H](NC(=O)CNC(=O)[C@H](CCC(N)=O)NC(=O)C(C)(C)NC(=O)[C@@H](N)Cc1c[nH]cn1)[C@@H](C)O)[C@@H](C)O)C(=O)N[C@@H](CCC(=O)O)C(=O)N[C@@H](Cc1ccccc1)C(=O)N[C@H](C(=O)N[C@@H](C)C(=O)N[C@@H](Cc1c[nH]c2ccccc12)C(=O)N[C@@H](CC(C)C)C(=O)N[C@@H](CCC(=O)O)C(=O)NCC(=O)N[C@@H](CCC(=O)O)C(=O)NCC(N)=O)[C@@H](C)CC)C(=O)O) [dgc018]	0.401	1.3
HXQGTFTSDYSKYLDERAAKEFIAWLEGG (HELM PEPTIDE1{H.[Aib].Q.G.T.F.T.S.D.Y.S.K.Y.L.D.E.R.A.A.K.E.F.I.A.W.L.E.G.G.[am]}|PEPTIDE2{[CCCCCCCCCCCCCCCC(=O)[*:2]].[gGlu]}$PEPTIDE1,PEPTIDE2,20:R3-2:R2$$$V2.0; N-terminus assumed; SMILES CCCCCCCCCCCCCCCC(=O)N[C@@H](CCC(=O)NCCCC[C@H](NC(=O)[C@H](C)NC(=O)[C@H](C)NC(=O)[C@H](CCCNC(=N)N)NC(=O)[C@H](CCC(=O)O)NC(=O)[C@H](CC(=O)O)NC(=O)[C@H](CC(C)C)NC(=O)[C@H](Cc1ccc(O)cc1)NC(=O)[C@H](CCCCN)NC(=O)[C@H](CO)NC(=O)[C@H](Cc1ccc(O)cc1)NC(=O)[C@H](CC(=O)O)NC(=O)[C@H](CO)NC(=O)[C@@H](NC(=O)[C@H](Cc1ccccc1)NC(=O)[C@@H](NC(=O)CNC(=O)[C@H](CCC(N)=O)NC(=O)C(C)(C)NC(=O)[C@@H](N)Cc1c[nH]cn1)[C@@H](C)O)[C@@H](C)O)C(=O)N[C@@H](CCC(=O)O)C(=O)N[C@@H](Cc1ccccc1)C(=O)N[C@H](C(=O)N[C@@H](C)C(=O)N[C@@H](Cc1c[nH]c2ccccc12)C(=O)N[C@@H](CC(C)C)C(=O)N[C@@H](CCC(=O)O)C(=O)NCC(=O)NCC(N)=O)[C@@H](C)CC)C(=O)O) [dgc014]	0.516	0.821
HXQGTFTSDYSKYLEERAAKEFIAWLEGEG (HELM PEPTIDE1{H.[Aib].Q.G.T.F.T.S.D.Y.S.K.Y.L.E.E.R.A.A.K.E.F.I.A.W.L.E.G.E.G.[am]}|PEPTIDE2{[CCCCCCCCCCCCCCCC(=O)[*:2]].[gGlu]}$PEPTIDE1,PEPTIDE2,20:R3-2:R2$$$V2.0; N-terminus assumed; SMILES CCCCCCCCCCCCCCCC(=O)N[C@@H](CCC(=O)NCCCC[C@H](NC(=O)[C@H](C)NC(=O)[C@H](C)NC(=O)[C@H](CCCNC(=N)N)NC(=O)[C@H](CCC(=O)O)NC(=O)[C@H](CCC(=O)O)NC(=O)[C@H](CC(C)C)NC(=O)[C@H](Cc1ccc(O)cc1)NC(=O)[C@H](CCCCN)NC(=O)[C@H](CO)NC(=O)[C@H](Cc1ccc(O)cc1)NC(=O)[C@H](CC(=O)O)NC(=O)[C@H](CO)NC(=O)[C@@H](NC(=O)[C@H](Cc1ccccc1)NC(=O)[C@@H](NC(=O)CNC(=O)[C@H](CCC(N)=O)NC(=O)C(C)(C)NC(=O)[C@@H](N)Cc1c[nH]cn1)[C@@H](C)O)[C@@H](C)O)C(=O)N[C@@H](CCC(=O)O)C(=O)N[C@@H](Cc1ccccc1)C(=O)N[C@H](C(=O)N[C@@H](C)C(=O)N[C@@H](Cc1c[nH]c2ccccc12)C(=O)N[C@@H](CC(C)C)C(=O)N[C@@H](CCC(=O)O)C(=O)NCC(=O)N[C@@H](CCC(=O)O)C(=O)NCC(N)=O)[C@@H](C)CC)C(=O)O) [dgc019]	0.792	1.83
HXQGTFTSDYSKYLEERAAKEFIAWLEGG (HELM PEPTIDE1{H.[Aib].Q.G.T.F.T.S.D.Y.S.K.Y.L.E.E.R.A.A.K.E.F.I.A.W.L.E.G.G.[am]}|PEPTIDE2{[CCCCCCCCCCCCCCCC(=O)[*:2]].[gGlu].[gGlu]}$PEPTIDE1,PEPTIDE2,20:R3-3:R2$$$V2.0; N-terminus assumed; SMILES CCCCCCCCCCCCCCCC(=O)N[C@@H](CCC(=O)N[C@@H](CCC(=O)NCCCC[C@H](NC(=O)[C@H](C)NC(=O)[C@H](C)NC(=O)[C@H](CCCNC(=N)N)NC(=O)[C@H](CCC(=O)O)NC(=O)[C@H](CCC(=O)O)NC(=O)[C@H](CC(C)C)NC(=O)[C@H](Cc1ccc(O)cc1)NC(=O)[C@H](CCCCN)NC(=O)[C@H](CO)NC(=O)[C@H](Cc1ccc(O)cc1)NC(=O)[C@H](CC(=O)O)NC(=O)[C@H](CO)NC(=O)[C@@H](NC(=O)[C@H](Cc1ccccc1)NC(=O)[C@@H](NC(=O)CNC(=O)[C@H](CCC(N)=O)NC(=O)C(C)(C)NC(=O)[C@@H](N)Cc1c[nH]cn1)[C@@H](C)O)[C@@H](C)O)C(=O)N[C@@H](CCC(=O)O)C(=O)N[C@@H](Cc1ccccc1)C(=O)N[C@H](C(=O)N[C@@H](C)C(=O)N[C@@H](Cc1c[nH]c2ccccc12)C(=O)N[C@@H](CC(C)C)C(=O)N[C@@H](CCC(=O)O)C(=O)NCC(=O)NCC(N)=O)[C@@H](C)CC)C(=O)O)C(=O)O) [dgc016]	1.23	0.342
HXQGTFTSDYSKYLDEKAAKEFIAWLEGG (HELM PEPTIDE1{H.[Aib].Q.G.T.F.T.S.D.Y.S.K.Y.L.D.E.K.A.A.K.E.F.I.A.W.L.E.G.G.[am]}|PEPTIDE2{[CCCCCCCCCCCCCCCC(=O)[*:2]].[gGlu]}$PEPTIDE1,PEPTIDE2,20:R3-2:R2$$$V2.0; N-terminus assumed; SMILES CCCCCCCCCCCCCCCC(=O)N[C@@H](CCC(=O)NCCCC[C@H](NC(=O)[C@H](C)NC(=O)[C@H](C)NC(=O)[C@H](CCCCN)NC(=O)[C@H](CCC(=O)O)NC(=O)[C@H](CC(=O)O)NC(=O)[C@H](CC(C)C)NC(=O)[C@H](Cc1ccc(O)cc1)NC(=O)[C@H](CCCCN)NC(=O)[C@H](CO)NC(=O)[C@H](Cc1ccc(O)cc1)NC(=O)[C@H](CC(=O)O)NC(=O)[C@H](CO)NC(=O)[C@@H](NC(=O)[C@H](Cc1ccccc1)NC(=O)[C@@H](NC(=O)CNC(=O)[C@H](CCC(N)=O)NC(=O)C(C)(C)NC(=O)[C@@H](N)Cc1c[nH]cn1)[C@@H](C)O)[C@@H](C)O)C(=O)N[C@@H](CCC(=O)O)C(=O)N[C@@H](Cc1ccccc1)C(=O)N[C@H](C(=O)N[C@@H](C)C(=O)N[C@@H](Cc1c[nH]c2ccccc12)C(=O)N[C@@H](CC(C)C)C(=O)N[C@@H](CCC(=O)O)C(=O)NCC(=O)NCC(N)=O)[C@@H](C)CC)C(=O)O) [dgc017]	0.627	3.95
